Drawing on PMC4030970, “Structural Evidence for the Tetrameric Assembly of Chemokine CCL11 and the Glycosaminoglycan Arixtra™” (Biomolecules, 2013), this text covers stoichiometry N for one substance.

As a reminder, the stoichiometry N is a count of units in the complex or per binding partner.

Values joined by “and” are separate entries in the source; they are usually repeats but may differ in a detail not shown here. Equal entries are not always repeated.

Assay [1] deals with human chemokine CCL11 (Eotaxin-1) (human) (UniProt P51671). Briefly: native MS; ion mobility MS (Waters Synapt G2 HDMS), nanospray; equimolar (1:1) mixture of CCL11 and Arixtra in 250 mM ammonium acetate; oligomers seen unbound and bound to Arixtra; MS/MS of the [tetramer+Arixtra]12+ ion gives monomer and trimer+Arixtra.
Assay [2] shares this target. The assay can be described thus: crystal structure; very preliminary X-ray structure of the CCL11 tetramer bound to Arixtra; de-twinned; Rfactor 17.6%, Rfree 26.7%; not deposited.
Assay [3] shares this target. Briefly: native MS; ion mobility MS (Waters Synapt G2 HDMS), nanospray; CCL11 alone at 20 μM in 250 mM ammonium acetate (pH 6.8), native conditions.

Sequence of human chemokine CCL11 (Eotaxin-1), P51671 24-97 (natural protein; other documents disagree on this pair) (P51671 24-97): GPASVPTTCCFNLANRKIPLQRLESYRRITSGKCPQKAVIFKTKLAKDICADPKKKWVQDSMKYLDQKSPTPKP

On to “human chemokine CCL11 (Eotaxin-1), P51671 24-97 (natural protein; other documents disagree on this pair)”, for which the stoichiometry N in assay [1] (Dimer + Arixtra) was 2; in assay [1] (Tetramer + Arixtra), 4; in assay [2], 4; in assay [3], 4 and 2.
